Measurements reported in the supplement of paper PMC10567573.

B1: KLHL14 (parent)
chain: NETGYLSSVECYNLETNEWRYVSS

Variants of: B1
Assay: protein stability index of a GFP-peptide fusion (GPS, HEK-293T) (PSI 1-6); higher = more stable
Details: c terminus: a fixed tail appended
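Also: lentivirally expressed fusions sorted by FACS into six bins by GFP to DsRed ratio, PSI derived from sequencing read proportions per bin multiplied by bin number.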

Protein stability index, by site and new letter:
G4: N 3.82, Q 3.77, F 2.39, L 2.67
C11: H 4.09, K 3.58, P 3.92, T 3.6, Q 4.11, N 4.18, I 2.55, L 2.97, S 3.77, G 3.91, V 2.76, W 4.03, Y 3.06, M 3.23, D 4.58, R 3.73, F 2.83, E 3.8
W19: V 4.58, H 4.77, F 4.71, M 4.36, K 5.08, T 4.99, E 4.97, P 3.66, I 4.75, Y 4.5, S 5.26, A 4.75, L 4.37, C 4.26, N 5.05, D 4.83, Q 4.31, R 4.92
S7: P 3.88, G 3.47, Q 3.86, I 2.46, C 2.52, W 2.11, Y 2.26, N 3.89, H 2.8, V 2.45, K 2.96, R 3.64, L 2.24, M 2.48, E 4.08, A 3.42, D 3.89, F 1.64, T 3.45
N13: E 2.79, W 1.71, K 2.56, I 1.52, R 2.81, A 2.99, G 2.67, D 3.83, T 3.24, S 2.69, F 1.64, V 1.47, Y 2.63, C 2.06, L 1.8, H 2.73, Q 2.8, P 3.48, M 2.21
L14: D 4.15, P 4.16, M 3.46, W 3.11, Q 3.88, H 3.74, G 3.49, I 3.35, R 3.73, F 3.38, K 3.99, A 3.96, C 3.2, E 4.6, S 4.68, T 3.62, Y 2.95, N 4.24, V 3.41
V9: C 3.35, N 4.11, L 3.12, M 3.62, W 2.43, Y 3.14, I 3.16, Q 3.85, F 2.67, A 4.07, T 3.4, E 4, K 2.96, R 3.41, S 3.87, P 3.84, D 4.39, H 3.88, G 3.88
R20: K 3.6, E 4.04, P 3.35, F 2.2, C 2.43, N 3.51, L 1.88, Q 3.49, A 2.95, I 2.3, M 2.65, H 2.83, D 4.12, G 3.06
E10: I 1.69, P 2.83, T 2.98, M 1.86, A 2.72, V 1.71, W 1.75, H 2.22, N 2.48, K 3.05, R 3.23, F 1.64, Y 1.58, S 1.94, Q 3.42, D 3.18, G 2.72, L 1.45, C 2.46
T16: G 3.83, C 3.58, L 2.63, I 2.48, M 2.66, Y 2.8, S 3.8, H 3.26, E 3.83, N 3.52, D 4.07, W 2.05, V 3, F 2.71, R 3.17, P 2.89, K 2.96, Q 4.16
